Measurements reported in IntAct's records for PubMed 27107116.

B1: Protein REG2 (Saccharomyces cerevisiae), P38232 (parent)
chain: MTLSNCDSLDNLFQDPPEEEESSKFVEAVRTLMNRNDMGYPPAAANGTYCLKKIKSLNAKQWKINKKRMCMLPAVKKKNFDFHEQRSLILNLNLWKFIKFINCSSKNNYNKNNKHVRSSNNTVKNENVLPLQKHKKVDNDQRLENLFWRSWFKARKRRDIMGKPRERHIKFNDNVEQCIITDEHFIQRLPSTRLNSTDEQRPCSKSELDPCIGNAASKRSFYDYNSVYVASDAIITTAAATAIISSNSGDYQRGHDVRDVPRNVLLQAGETDFSSVLRVDSDLKLSNISHHSPVKPSSTSSHSTFIFESETDTDTDTDAETENDIDAYIDTSIPNLLL
partner: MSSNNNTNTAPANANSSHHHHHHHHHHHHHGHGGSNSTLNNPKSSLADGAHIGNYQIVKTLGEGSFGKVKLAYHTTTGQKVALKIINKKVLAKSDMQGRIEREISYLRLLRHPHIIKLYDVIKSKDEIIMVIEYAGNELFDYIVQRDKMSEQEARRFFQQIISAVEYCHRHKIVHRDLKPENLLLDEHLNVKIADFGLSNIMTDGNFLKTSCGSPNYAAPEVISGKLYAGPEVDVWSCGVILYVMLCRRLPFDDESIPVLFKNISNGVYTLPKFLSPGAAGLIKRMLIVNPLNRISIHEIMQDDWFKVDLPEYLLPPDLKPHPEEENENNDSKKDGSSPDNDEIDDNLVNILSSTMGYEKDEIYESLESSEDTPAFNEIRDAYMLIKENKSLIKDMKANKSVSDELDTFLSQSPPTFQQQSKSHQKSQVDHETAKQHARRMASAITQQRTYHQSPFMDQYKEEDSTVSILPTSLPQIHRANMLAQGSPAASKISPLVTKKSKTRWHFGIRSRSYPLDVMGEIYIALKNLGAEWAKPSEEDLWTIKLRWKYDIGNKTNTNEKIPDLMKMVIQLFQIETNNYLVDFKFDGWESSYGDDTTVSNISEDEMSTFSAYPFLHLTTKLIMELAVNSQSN
B2: Protein REG2 (Saccharomyces cerevisiae), P38232 (parent)
chain: B1 chain
B3: Carbon catabolite-derepressing protein kinase (Saccharomyces cerevisiae), P06782 (parent)
chain: B1 partner
partner: B1 chain

Variants of: B1
Conditions: with snf1_yeast SNF1, P06782

effect of a mutation on the interaction	Variant
with no effect	MTLSNCDSLDNLFQDPPEEEESSKFVEAVRTLMNRNDMGYPPAAANGTYCLKKIKSLNAKQWKINKKRMCMLPAVKKKNFDFHEQRSLILNLNLWKFIKFINCSSKNNYNKNNKHVRSSNNTVKNENVLPLQKHKKVDNDQRLENLFWRSWFKARKRRDIMGKPRERHMKANDNVEQCIITDEHFIQRLPSTRLNSTDEQRPCSKSELDPCIGNAASKRSFYDYNSVYVASDAIITTAAATAIISSNSGDYQRGHDVRDVPRNVLLQAGETDFSSVLRVDSDLKLSNISHHSPVKPSSTSSHSTFIFESETDTDTDTDAETENDIDAYIDTSIPNLLL [I169M;F171A]

Variants of: B2
Conditions: with pp12_yeast GLC7, P32598
Sequence of pp12_yeast GLC7, P32598 (P32598 whole entry): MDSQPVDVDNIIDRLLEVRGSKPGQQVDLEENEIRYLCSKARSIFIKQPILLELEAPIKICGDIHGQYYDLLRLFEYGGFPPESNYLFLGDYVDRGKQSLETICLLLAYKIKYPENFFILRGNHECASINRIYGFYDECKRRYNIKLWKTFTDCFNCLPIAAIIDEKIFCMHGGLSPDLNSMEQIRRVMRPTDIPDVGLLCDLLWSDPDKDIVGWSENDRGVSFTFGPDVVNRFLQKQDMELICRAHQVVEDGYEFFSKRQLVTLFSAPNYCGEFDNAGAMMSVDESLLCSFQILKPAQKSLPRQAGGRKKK

effect of a mutation on the interaction	Variant
disrupting interaction strength	MTLSNCDSLDNLFQDPPEEEESSKFVEAVRTLMNRNDMGYPPAAANGTYCLKKIKSLNAKQWKINKKRMCMLPAVKKKNFDFHEQRSLILNLNLWKFIKFINCSSKNNYNKNNKHVRSSNNTVKNENVLPLQKHKKVDNDQRLENLFWRSWFKARKRRDIMGKPRERHMKANDNVEQCIITDEHFIQRLPSTRLNSTDEQRPCSKSELDPCIGNAASKRSFYDYNSVYVASDAIITTAAATAIISSNSGDYQRGHDVRDVPRNVLLQAGETDFSSVLRVDSDLKLSNISHHSPVKPSSTSSHSTFIFESETDTDTDTDAETENDIDAYIDTSIPNLLL [I169M;F171A]

Variants of: B3
Conditions: with reg2_yeast REG2, P38232

effect of a mutation on the interaction	Variant
disrupting interaction strength	T210A
decreasing interaction strength	K84R
